# Assay results from patent US7657380.
# Where a chain is given by its changes, count along the chain named.
# T1: human CD30 (commercial, conjugated to digoxigenin) (human, UniProt P28908 19-379, limits assumed, conjugated to digoxigenin (DIG))
# T1 sequence (looked up): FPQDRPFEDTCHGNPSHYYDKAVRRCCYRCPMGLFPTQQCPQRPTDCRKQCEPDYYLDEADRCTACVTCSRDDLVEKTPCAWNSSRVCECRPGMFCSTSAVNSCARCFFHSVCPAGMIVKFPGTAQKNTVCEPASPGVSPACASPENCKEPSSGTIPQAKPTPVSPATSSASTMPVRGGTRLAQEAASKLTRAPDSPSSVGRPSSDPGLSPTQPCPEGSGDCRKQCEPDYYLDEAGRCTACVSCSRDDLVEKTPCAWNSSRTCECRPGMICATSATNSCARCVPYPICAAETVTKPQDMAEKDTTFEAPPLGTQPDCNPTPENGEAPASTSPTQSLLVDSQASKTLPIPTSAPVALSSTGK
# B1: AC10 H3.44/L3 (antibody, IgG1, name in Kabat numbering, V domains shown)
# VH: QIQLVQSGPEVKKPGASVKVSCKASGYTFTDYYITWVRQAPGQGLEWMGWIYPGSGNTKYNEKFQGRFVFSRDTSASTAYLQISSLKAEDTAVYFCANYGNYWFAYWGQGTLVTVSS
# VL: DIVLTQSPDSLAVSLGERATINCKASQSVDFDGDSYMNWYQQKPGQPPKVLIYAASNLESGIPARFSGSGSGTDFTLTINSLEAEDAATYYCQQSNEDPWTFGGGTKVEIK
# B2: AC10 H3.64/L3 (antibody, IgG1, name in Kabat numbering, V domains shown)
# VH: B1 VH with R72V, Q109R
# VL: B1 VL
# B3: AC10 H3.50/L3 (antibody, IgG1, name in Kabat numbering, V domains shown)
# VH: B1 VH with R72V, A97V
# VL: B1 VL
# B4: AC10 H3.54/L3 (antibody, IgG1, name in Kabat numbering, V domains shown)
# VH: B1 VH with R72V, N98R
# VL: B1 VL
# B5: AC10 H3.62/L3 (antibody, IgG1, name in Kabat numbering, V domains shown)
# VH: B1 VH with R72V, Y106L
# VL: B1 VL
# B6: AC10 H3.57/L3 (antibody, IgG1, name in Kabat numbering, V domains shown)
# VH: B1 VH with R72V, A105D
# VL: B1 VL
# B7: AC10 H3.45/L3 (antibody, IgG1, name in Kabat numbering, V domains shown)
# VH: B1 VH with R72V, T91M
# VL: B1 VL
# B8: AC10 H3.55/L3 (antibody, IgG1, name in Kabat numbering, V domains shown)
# VH: B1 VH with R72V, N98T
# VL: B1 VL
# B9: AC10 H3.59/L3 (antibody, IgG1, name in Kabat numbering, V domains shown)
# VH: B1 VH with R72V, Y106H
# VL: B1 VL
# B10: AC10 H3.53/L3 (antibody, IgG1, name in Kabat numbering, V domains shown)
# VH: B1 VH with R72V, N98K
# VL: B1 VL
# B11: AC10 H3.52/L3 (antibody, IgG1, name in Kabat numbering, V domains shown)
# VH: B1 VH with R72V, N98H
# VL: B1 VL
# B12: AC10 H3.46/L3 (antibody, IgG1, name in Kabat numbering, V domains shown)
# VH: B1 VH with R72V, V93M
# VL: B1 VL
# B13: AC10 H3.48/L3 (antibody, IgG1, name in Kabat numbering, V domains shown)
# VH: B1 VH with R72V, F95Y
# VL: B1 VL
# B14: AC10 H3.49/L3 (antibody, IgG1, name in Kabat numbering, V domains shown)
# VH: B1 VH with R72V, A97T
# VL: B1 VL
# B15: AC10 H3.61/L3 (antibody, IgG1, name in Kabat numbering, V domains shown)
# VH: B1 VH with R72V, Y106V
# VL: B1 VL
# B16: AC10 H3.58/L3 (antibody, IgG1, name in Kabat numbering, V domains shown)
# VH: B1 VH with R72V, A105Q
# VL: B1 VL
# B17: AC10 H3.63/L3 (antibody, IgG1, name in Kabat numbering, V domains shown)
# VH: B1 VH with R72V, Y106F
# VL: B1 VL
# B18: AC10 H3.60/L3 (antibody, IgG1, name in Kabat numbering, V domains shown)
# VH: B1 VH with R72V, Y106S
# VL: B1 VL
# Target: T1, human CD30 (commercial, conjugated to …)
# Assay: AlphaScreen competition
row,Binder,Fold IC50 vs H3/L3
1,B1,1.76 fold
2,B2,1.28 fold
3,B3,1.4 fold
4,B4,0 fold
5,B5,1.22 fold
6,B6,0.53 fold
7,B7,1.14 fold
8,B8,0.91 fold
9,B9,1.05 fold
10,B10,0.02 fold
11,B11,1.24 fold
12,B12,1.39 fold
13,B13,1.6 fold
14,B14,0.38 fold
15,B15,1.21 fold
16,B16,0.16 fold
17,B17,1.24 fold
18,B18,0.82 fold
